Results from PMC11344281 (Protein Science : A Publication of the Protein Society, 2024).

B1: Sec20 SNARE domain (aa 133–198) (domain or fragment)
chain: QTSSSITESLMGISRMMSQQVQQSEEAMQTLVSSSRTLLDANEEFKSMSGTIQLGRKLITKYNRRE
B2: U_SNAP (Sec20, aa 133–198; Use1, aa 174–239), chimeric Qbc-SNARE with the SNAP-25 linker (other)
chain: QTSSSITESLMGISRMMSQQVQQSEEAMQTLVSSSRTLLDANEEFKSMSGTIQLGRKLITKYNRREGLSVSPSNKLKSSDAYKKAWGNNQDGVVASQPARVVDEREQMAISGGFIRRVTNDQRHQGLQEKLAEEMLGLARSLKTNTLAAQSVIKKDNQTLSHSLKMADQNLEKLKLESERLEQHAQK
B3: syntaxin 18 SNARE domain (aa 229–312) (domain or fragment)
chain: EEIQMFEQENQRLIGEMNSLFDEVRQIEGKVVEISRLQEIFTEKVLQQETEIDSIHQLVVGATENIKEGNEDIREAIKNNAGFR
B4: Use1 SNARE domain (aa 174–239) (domain or fragment)
chain: QRHQGLQEKLAEEMLGLARSLKTNTLAAQSVIKKDNQTLSHSLKMADQNLEKLKLESERLEQHAQK

Legend:
[1] = molecular target: B3; assay: native gel or EMSA + SEC
[2] = molecular target: B4; assay: native gel or EMSA + SEC
[3] = molecular target: B3; assay: native gel or EMSA
[4] = molecular target: synaptobrevin 2 (aa 1–96) (Rattus norvegicus, UniProt P63045 1-96); assay: native gel or EMSA + SEC
synaptobrevin 2 (aa 1–96), sequence (P63045 1-96): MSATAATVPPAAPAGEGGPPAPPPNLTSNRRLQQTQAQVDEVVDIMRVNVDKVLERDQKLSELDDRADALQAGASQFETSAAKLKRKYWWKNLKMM

Binder: B1
binding result [1]: binds
binding result [2]: binds

Binder: B2
binding result [3]: binds

Binder: B3
binding result [4]: binds

Binder: B4
binding result [1]: binds
